In the supplement of paper PMC10724198:
± gives the standard deviation of the averaged measurements.

Experiments:
Saccharomyces cerevisiae [1] = experiment: protein stability index of tFT-peptide fusion (C-terminal peptide) (PSI (0-1 scale)); higher = more stable (slower turnover)
Protocol: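 MPS profiling in S. cerevisiae of the tFT-X12 degron library: putative degron peptides plus stable controls, 12 aa, fused to the C-terminus of a sfGFP-mCherry timer. Cells are FACS-sorted into 8 mCherry/sfGFP bins and deep-sequenced. PSI runs from 0 (unstable) to 1 (stable). Backgrounds are wild type, das1Δ and doa10Δ at 30 °C, and wild type, das1Δ, cdc34-1 and cdc53-1 at 37 °C; 2-3 technical replicates each.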

Saccharomyces cerevisiae [2] = experiment: as above; conditions: genetic background: wild type; temperature: 30 C
[3] = genetic background: cdc34-1, temperature: 37 C
[4] = genetic background: cdc53-1, temperature: 37 C
[5] = genetic background: das1 deletion, temperature: 30 C
[6] = genetic background: das1 deletion, temperature: 37 C
[7] = genetic background: doa10 deletion, temperature: 30 C
[8] = genetic background: wild type, temperature: 30 C
[9] = genetic background: wild type, temperature: 37 C
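Note: PSI is a weighted mean of sequencing reads over stability bins, variants kept only with over 10 reads, mCherry proximal and sfGFP distal, peptide attached via GGGS linker.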

Sequence | protein stability index (Saccharomyces cerevisiae [1]; [3]) | protein stability index (Saccharomyces cerevisiae [1]; [4]) | protein stability index (Saccharomyces cerevisiae [1]; [5]) | protein stability index (Saccharomyces cerevisiae [1]; [6]) | protein stability index (Saccharomyces cerevisiae [1]; [7]) | protein stability index (Saccharomyces cerevisiae [1]; [8]) | protein stability index (Saccharomyces cerevisiae [1]; [9]) | protein stability index (Saccharomyces cerevisiae [2])
LFFVFCLFFIYF | 0.167 ± 0.031 | 0.102 ± 0.0085 | 0.235 ± 0.024 | 0.301 ± 0.0074 | 0.322 ± 0.0061 | 0.252 ± 0.017 | 0.264 ± 0.011 | 0.247 ± 0.004
LFHSIPRLLLLK | 0.0746 ± 0.013 | 0.0485 ± 0.0081 | 0.23 ± 0.087 | 0.27 ± 0.04 | 0.627 ± 0.0064 | 0.241 ± 0.033 | 0.218 ± 0.041 | 0.367 ± 0.053
LFKFCLGIPLFL | 0.51 ± 0.026 | 0.522 ± 0.029 | 0.412 ± 0.037 | 0.576 ± 0.006 | 0.4179 ± 0.004 | 0.402 ± 0.029 | 0.559 ± 0.014 | 0.479 ± 0.038
LFLSAFFYLLVW | 0.199 ± 0.0028 | 0.2233 ± 0.0014 | 0.245 ± 0.029 | 0.341 ± 0.0047 | 0.277 ± 0.0047 | 0.238 ± 0.014 | 0.3077 ± 0.002 | 0.284 ± 0.039
LFLVLFCVVGFV | 0.234 ± 0.036 | 0.311 ± 0.031 | 0.226 ± 0.027 | 0.377 ± 0.0076 | 0.222 ± 0.0075 | 0.219 ± 0.02 | 0.337 ± 0.011 | 0.282 ± 0.0047
LFSFFVFFFLLD | 0.358 ± 0.086 | 0.446 ± 0.0062 | 0.364 ± 0.044 | 0.522 ± 0.031 | 0.375 ± 0.005 | 0.37 ± 0.031 | 0.476 ± 0.02 | 0.435 ± 0.034
LFTRWSILFKLF | 0.335 ± 0.075 | 0.357 ± 0.058 | 0.559 ± 0.032 | 0.694 ± 0.052 | 0.0889 ± 0.025 | 0.0908 ± 0.012 | 0.136 ± 0.015 | 0.132 ± 0.0026
LGDPPCRMIVVR | 0.532 ± 0.026 | 0.58581 ± 4.2e-05 | 0.353 ± 0.038 | 0.5869 ± 0.0044 | 0.339 ± 0.011 | 0.376 ± 0.026 | 0.558 ± 0.0075 | 0.466 ± 0.033
LGGVEDRWRTAT | 0.653 ± 0.05 | 0.704 ± 0.0094 | 0.693 ± 0.032 | 0.7227 ± 0.0051 | 0.261 ± 0.016 | 0.296 ± 0.025 | 0.534 ± 0.008 | 0.365 ± 0.0037
LGRLDYKRMKRA | 0.7464 ± 0.0014 | 0.748 ± 0.024 | 0.641 ± 0.033 | 0.7434 ± 0.0068 | 0.477 ± 0.017 | 0.51 ± 0.021 | 0.618 ± 0.046 | 0.533 ± 0.076
LGSYIFVVVIYF | 0.152 ± 0.011 | 0.228 ± 0.0032 | 0.168 ± 0.032 | 0.291 ± 0.0044 | 0.141 ± 0.0079 | 0.143 ± 0.033 | 0.253 ± 0.0056 | 0.283 ± 0.15
LGSYVWVFVYFW | 0.159 ± 0.022 | 0.258 ± 0.0054 | 0.155 ± 0.039 | 0.323 ± 0.01 | 0.148 ± 0.0054 | 0.151 ± 0.028 | 0.267 ± 0.025 | 0.187 ± 0.051
LHIHGAGIVCAG | 0.549 ± 0.026 | 0.584 ± 0.029 | 0.368 ± 0.032 | 0.5788 ± 0.001 | 0.318 ± 0.0044 | 0.374 ± 0.029 | 0.5491 ± 0.0022 | 0.467 ± 0.028
LICRFLFFVCVG | 0.412 ± 0.024 | 0.451 ± 0.0053 | 0.377 ± 0.023 | 0.507 ± 0.0068 | 0.277 ± 0.011 | 0.278 ± 0.02 | 0.441 ± 0.03 | 0.394 ± 0.04
LILLTFTLRVPV | 0.192 ± 0.0027 | 0.381 ± 0.046 | 0.233 ± 0.02 | 0.4028 ± 0.0024 | 0.2056 ± 0.001 | 0.227 ± 0.026 | 0.362 ± 0.018 | 0.361 ± 0.034
